Measurements from the supplement of paper PMC12764529.
± gives the half width of the 95% confidence interval.

Assays:
[1] = folding stability dG unfold from chymotrypsin proteolysis; higher = more stable
How it was run: (§1)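 Unfolding free energy was derived, per protease or combined, by relating Bayesian-fitted K50 values from sequencing counts to a sequence-predicted unfolded-state K50 and a shared folded-state K50. The underlying digests exposed cysteine-free mini-proteins under 80 residues, in a PA-tagged cDNA display construct, to trypsin and chymotrypsin at 11 threefold-diluted concentrations and to a no-protease condition. A filter kept only designs with AlphaFold2 dimer inter-PAE above 15.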

[2] = folding stability dG unfold (combined trypsin and chymotrypsin); higher = more stable
How it was run: as §1

[3] = folding stability dG unfold from trypsin proteolysis; higher = more stable
How it was run: as §1

Sequence | folding stability dG unfold [1] [kcal/mol] | folding stability dG unfold [2] [kcal/mol] | folding stability dG unfold [3] [kcal/mol]
SAGGSGRQMVRNIVRHALDQQQQHGKPIDKIYIFGPPNMRKEIKKELEEEGLPPGVKITIVPAEDMQSAGGS [r16_164_TrROS] | 0.101 ± 0.51 | 0.326 ± 0.37 | 0.761 ± 0.13
SAGGSGSQEVDIDFKFPPNFNMDELAKKIEELPGIDIKPDRYDPENGTYKITINVNDPQAVREIIRSAGGSA [r2_305_TrROS] | -0.497 ± 0.69 | -0.483 ± 0.5 | 0.0473 ± 0.16
SAGGSGTESKEYPDSKVTVTPVPLPLGDGAPVLRVTTVPKLPNGEPVTTVTLVDPDSDVVVTEETLSAGGSA [r2_484_JUSTAS] | 0.925 ± 0.012 | 0.598 ± 0.044 | -0.0208 ± 0.028
SAGGSIEEAKKAAEKLAKEIAEKKGWTVKSVEVEKLPDGTVRATITIKYPDGSEETIEVTIPPNTPLSAGGS [r8_175_JUSTAS] | 0.954 ± 0.039 | 1.91 ± 0.14 | 2.63 ± 0.11
SAGGSIEELAEELARRFAEENGAAEVRVEVEGLPDNTVLVRVYVRGPDGELLGVVDALIPVPEDELSAGGSA [r2_153_TrMRF] | 2.09 ± 0.062 | 2.05 ± 0.085 | 1.94 ± 0.045
SAGGSIEEVIEELIKSGKPPSKEEIKEAIKKAIEEEVKKKGKKIPKVNIKKITSNPETGKIPIEIIISAGGS [r16_365_JUSTAS] | 0.784 ± 0.056 | 0.356 ± 0.17 | -0.757 ± 0.41
SAGGSIKIDEIEPDPPGDRVKVKMDIPVPMYDPNGKPKEPMPIKITAEARVDPENGELAINMDIEMSAGGSA [r2_220_TrROS] | 1.4 ± 0.33 | 1.67 ± 0.53 | 2.73 ± 0.41
SAGGSISVEELKKLPPDSTLTYTEGDKLYEIKVYKNPEGALSIEITEIDPNTGSPVKTEIVNLEELLSAGGS [r16_763_JUSTAS] | 3.53 ± 0.075 | 3.21 ± 0.12 | 1.63 ± 0.13
SAGGSITVSEDESNLTFTIPVPPTEPLTPEEVRAAAEALLAELGPDIRVLSIERLPDGGYRVEAEVRSAGGS [r8_103_JUSTAS] | 1.6 ± 0.043 | 1.87 ± 0.037 | 2.08 ± 0.033
SAGGSIVDRIRKILKEYGYTAQVERNGDGITIVVQFNKEQRKKIVSEIQEDFGYPIKIEVMPPGQELSAGGS [r16_514_TrROS] | 1.94 ± 0.027 | 2.03 ± 0.11 | 1.97 ± 0.06
SAGGSKIIITYDKEKNVITIKVEKNGKLLEITIEVKSKEDLEEALKKAEELAKELEKKGYKVEIIPSAGGSA [r2_118_TrROS_Hall] | 2.31 ± 0.07 | 2.15 ± 0.2 | 1.95 ± 0.12
SAGGSKIRIVEIQPSNGFTIKIRPKNGKKMTIPIPPDDMNDPENWERFARTLAKWFEKNGVKDIEISAGGSA [r2_249_TrROS] | 0.615 ± 0.37 | 0.538 ± 0.26 | 0.312 ± 0.17
SAGGSKKKIYKIKIKIEVINEETGEKKTVEIEIEAESLEEALAAIAKALLPEGQTVKIVDIEIEEVSAGGSA [r2_320_TrROS_Hall] | 3.89 ± 0.079 | 3.73 ± 0.085 | 3.42 ± 0.069
SAGGSKLKNLKSKPFPITFENGGKVTLNVVNIPKSSKPVVNITVIEPNSGKKKTFTVPLEEAKNLLSAGGSA [r2_366_TrMRF] | 1.16 ± 0.12 | 0.869 ± 0.089 | 0.394 ± 0.071
SAGGSKPEKIKVVSVEVFPDGLIKVKVKTESGYEATALIVKLPGDKYLIFLTIPANGKPFVFELPASAGGSA [r2_361_TrMRF] | 2.61 ± 0.031 | 2.54 ± 0.072 | 2.36 ± 0.059
SAGGSKTVTLTVTVEVNGKTFTVTVTLTYDEETNKLTITVEISAKSEEERERARELVEKLLKELLSSAGGSA [r2_259_TrROS_Hall] | 4.95 ± 0.094 | 4.79 ± 0.13 | 3.83 ± 0.12
SAGGSKTVTVTVRIKVTNEDGEELTVTARLTYNEETGEVTVEIEMSPEALERLRELFPDVKIEIYPSAGGSA [r2_409_TrROS_Hall] | 3.09 ± 0.13 | 3.9 ± 0.32 | 4.08 ± 0.22
SAGGSKVTLEVNEDGTVTLTVTRPDGKKVTLTITKNEDGTYTIRDEETGKTITVPAGMSIEELLKASAGGSA [r2_338_TrROS_Hall] | 5.17 ± 0.14 | 5.09 ± 0.1 | 3.69 ± 0.12
SAGGSLKIKIRNPDGMPFKIDVVRYPNHIRIKFKFGNKPVAFMIDPESDTINFRIPGWPFQIEIEPSAGGSA [r2_194_TrROS] | 3.39 ± 0.092 | 3.26 ± 0.15 | 2.96 ± 0.096
SAGGSLPELLKLAKELAKKLGAKDLTAKESGEITIKSPENITITVSTEDGEPVVTINNTSTSSTIPLSAGGS [r16_296_JUSTAS] | -0.185 ± 0.22 | -0.18 ± 0.26 | -0.36 ± 0.32
SAGGSLRQLIRALFKKKGIPIEPEKVDPNWVTFKVPNKDVKIDLPDGNKIEIKPNGYVRIRIPPDDLSAGGS [r8_297_TrROS] | -0.354 ± 0.89 | -0.1 ± 0.4 | -0.172 ± 0.68

Sequence | folding stability dG unfold [1] [kcal/mol] | folding stability dG unfold [2] [kcal/mol] | folding stability dG unfold [3] [kcal/mol]
SAGGSLTAEWDTSTGTVRLTFPDGSVVELPFPTSGAVVRATVDGDKVTIEVLDKDNPKVVARFTFDLGSAGG [r13_938_TrMRF] | 4.74 ± 0.15 | 4.37 ± 0.19 | 3.79 ± 0.2
SAGGSLVTTEFPGVTITTDPATGVLTVEASPEEVERLIEALGPEFNPVEIRRLPDGSYLLTLPVTPPSAGGS [r8_415_JUSTAS] | 2.042 ± 0.02 | 2.1 ± 0.03 | 2.13 ± 0.03
SAGGSMALVEIERPGGEGALRTVDTSNPAAVKAFVDAVPEDEPVRVYTDDPAVVELFKEAGFDEVLLESAGG [r13_476_JUSTAS] | 0.775 ± 0.087 | 0.55 ± 0.096 | -0.0819 ± 0.053
SAGGSMAPDVKVEVEVFPDGLVLFRLTLPDGRPFLALAEVREDGRVKVVVFDLYPGEKVEFEIPIKSAGGSA [r2_99_TrMRF] | 3.7 ± 0.045 | 3.28 ± 0.14 | 2.52 ± 0.12
SAGGSMELELEVKNPETGKTYKVKITSFDEETGEVTVEIEDEETGETKTLTFKVEPVELVEEEEEESAGGSA [r2_147_TrROS_Hall] | 3.28 ± 0.037 | 3.08 ± 0.076 | 2.38 ± 0.1
SAGGSMERTVELTYTFKDKPIKITITVTTDPETGTVTVPIEIETEDEKIKEPALEKAKELAEELLASAGGSA [r2_259_JUSTAS] | 0.26 ± 0.13 | 0.301 ± 0.12 | 0.133 ± 0.065
SAGGSMETRETLEERTLPNGEKVLTTTTTYPDGTVTTRTTVIHGGTSTVTTTTTPAAPVPGPAPARASAGGS [r16_523_JUSTAS] | 2.01 ± 0.059 | 1.55 ± 0.085 | 0.422 ± 0.028
SAGGSMEVKVEVVKDEETKEYYVKVEIRDPKTKKTITLEYKVKEEDKEEALKKAKELAEELAKKGISAGGSA [r2_221_TrROS_Hall] | 3.64 ± 0.077 | 3.48 ± 0.1 | 3.27 ± 0.14
SAGGSMGKTPDGGEVEFFEKPEENLIFAVVKHPDGSYYVAVFKKDEDKIELIDVKEVPEGEIEELASAGGSA [r2_336_TrMRF] | 2.07 ± 0.031 | 1.89 ± 0.13 | 1.26 ± 0.089
SAGGSMGSKKVGEIELEVEIGDEKVKVKVTLYETESPDDSVSLTLDVDVEHPNGKKISKELFEKLFSAGGSA [r2_363_TrMRF] | 2.14 ± 0.033 | 1.84 ± 0.15 | 1.15 ± 0.064
SAGGSMIFETLGSEKLIKEKAEERGLDLVEYSVEGNKFFALLKDPAGKLVLTYSDEASVKKLGLDLSKLSAG [r5_12_JUSTAS] | 0.523 ± 0.08 | 0.299 ± 0.081 | -0.265 ± 0.095
SAGGSMIITRDPATGLVTVYKNGKKVKTIEVPPGNPVGVSLSYNPSPNTYTVTLTTPESPVKISNLSAGGSA [r2_399_JUSTAS] | 1.31 ± 0.083 | 1.15 ± 0.06 | 0.855 ± 0.032
SAGGSMIPLTVTRYDPNSDKPVSTTPVVYDPETGTWTAYPPDGSRTTYALSLEDLIAALPSTWSVGPSAGGS [r16_543_JUSTAS] | 0.599 ± 0.052 | 0.567 ± 0.044 | 0.452 ± 0.034
SAGGSMIPRLEERVLEVEVDSEEEAEKLKKELKEKIEKEHPGVEVKFELRKLPNGKYLLTITVVIPILSAGG [r13_17_JUSTAS] | 3.93 ± 0.041 | 3.64 ± 0.077 | 2.89 ± 0.058
SAGGSMKIKVEYEELPNGKMVIRIDIPPEENNMTPEQVETIAKEIAEEFPNVKVETTPGSIWIRVPSAGGSA [r2_256_TrROS] | 1.21 ± 0.2 | 1.24 ± 0.16 | 1.38 ± 0.1
SAGGSMKITKIEIEKLPNGEYKITITKDENGNITVTVTNKNGKKKTITLKVKPEDVEEVLKELLKKSAGGSA [r2_298_TrROS_Hall] | 3.01 ± 0.06 | 2.73 ± 0.1 | 1.6 ± 0.051
SAGGSMKIVKIEKIDLAKLKPGDIIEVKLENGEIYRIRIEKNEDGKYTVYIYNKNGELVEEFEFDVSAGGSA [r2_323_TrROS_Hall] | 4.25 ± 0.034 | 3.84 ± 0.097 | 2.27 ± 0.12
SAGGSMKLTTTTPDGKPFEADVTEYPTFYKITFKVGNKEYTLLANPSTNTVDGNVDGFPFKLKLNPSAGGSA [r2_194_TrMRF] | 1.25 ± 0.18 | 1.25 ± 0.18 | 1.28 ± 0.1
SAGGSMKPSKVTEVTHPDGTRFTVTEYPEVPLLTLTIERPETGTTTTVKTKSREEAEKVLAELVASSAGGSA [r2_70_JUSTAS] | 0.306 ± 0.16 | 0.596 ± 0.11 | 0.696 ± 0.068
SAGGSMKPVKKTIVILKPSSVTEEEVKEEVVEKAKELGLKVKPIRTEVYPLPDYYLVVVEVEIEVPPESAGG [r13_351_TrMRF] | 1.24 ± 0.072 | 1.38 ± 0.21 | 1.56 ± 0.11
SAGGSMKTITDPGNLSEEEIKKILSKFPPNTTVTIEFPDATHTVTLNPDKIEISRDPSYPNFRITITISSAG [r5_373_JUSTAS] | 2.01 ± 0.036 | 1.72 ± 0.1 | 1.31 ± 0.029
